Experiment [1] concerns A431. As to the kind of experiment: ADC cancer cell killing, Cell-Titer-Glo 2.0. It is filed as cell-based, human. As for the experimental part:
(§1) Human bile duct cancer cells HuCC-T1 available from Zhejiang MeisenCTCC, human epidermal cancer cells A431 available from Procell Life Science&Technology Co.,Ltd. (Wuhan) and Chinese hamster ovary cells CHO from negative control ATCC were seeded into a 96-well plate at 2500 cells/well. It was then incubated in a 5% CO2 incubator overnight at 37°C. Half of the medium was removed from the cell plate on the next day. A 2x hIgG1 (negative control antibody, provided by Biointron), Vatelizumab, FS002-A1-vc-MMAE, FS002-A15-vc-MMAE, FS002-A36-vc-MMAE, Vatelizumab-ve-MMAE, hIgG1-vcMMAE (negative control ADC, provided by ChemPartner) was prepared with a complete culture medium, and then diluted at a 3-fold gradient with 11 specific concentration points in total. Serial dilutions of the above molecules were added to the appropriate wells, and it was then incubated in a 5% CO2 incubator for 5 days at 37°C. After the incubation, 100 uL of Cell-Titer-Glo 2.0 reagent was added to the 96-well plate. It was then well mixed on a plate shaker for 2 minutes, and finally equilibrated at room temperature for 10 minutes. Readings were taken using a microplate reader. Finally, IC50 was used to compare the biological activity of the ADC against each cell line.

The test system of experiment [2] is HuCC-T1. As to the kind of experiment: ADC cancer cell killing, Cell-Titer-Glo 2.0. It counts as cell-based, human. Here is the method: as §1
Experiment [3] concerns CHO. In words: ADC cell killing in negative control cells, Cell-Titer-Glo 2.0. It is filed as cell-based, Chinese hamster. Here is the method:
as §1

Setting [4] is: result in words, summary of Table 9.

We go through one molecule from patent publication EP4545563A1, “ANTIBODIES TARGETING ITGA2 AND ANTIBODY-DRUG […]” (Foreseen Technology (Beijing) Co., Ltd., priority 2022, dated 2024).

B1: Vatelizumab-ve-MMAE: antibody-drug conjugate of the positive control antibody Vatelizumab with vc-MMAE as the linker-payload (conjugate, chains of the INN, looked up)
VH: QVQLQESGPGLVKPSETLSLTCTVSGFSLTNYGIHWIRQPPGKGLEWLGVIWARGFTNYNSALMSRLTISKDNSKNQVSLKLSSVTAADTAVYYCARANDGVYYAMDYWGQGTLVTVSS
VL: DFVMTQSPAFLSVTPGEKVTITCSAQSSVNYIHWYQQKPDQAPKKLIYDTSKLASGVPSRFSGSGSGTDYTFTISSLEAEDAATYYCQQWTTNPLTFGQGTKVEIK
modifications: vc-MMAE payload
As to B1, the 50% inhibitory concentration (IC50) is 0.08 nM in experiment [1] (human epidermal cancer cells A431, incubated 5 days at 37°C); 0.89 nM in experiment [2] (Human bile duct cancer cells HuCC-T1, incubated 5 days at 37°C); above 207 nM in experiment [3] (negative control cells CHO, incubated 5 days at 37°C). In addition, in experiment [1] (setting [4]), the “killing effect on A431” value was “good killing effect”. For the same molecule, the “killing effect on HuCC-T1” value in experiment [2] (setting [4]) is “good killing effect”. Besides, in experiment [3] (setting [4]), the “killing effect on negative control cells CHO” value is given as “no killing effect”.

For orientation: IC50 means the concentration needed to halve the response being measured. Low readings indicate inhibition by little substance, high ones a need for much substance.
